Test results reported in the supplement of paper PMC7877785.
± gives the uncertainty stated by the source.

Test: self-splicing fitness, log relative to wild type (ln ratio); higher = more splicing; Tetrahymena group I intron in knt gene, E. coli kanamycin selection, DiMSum; sequences stand for … in CUCUCU…GGAGGGAAAAGUUAUCAGGCAUGCACCUGGUAGCUAGUCUUUAAACCAAUAGAUUGCAUCGGUUUAAAAGGCAAGACCGUCAAAUUGCGGGAAAGGGGUCAACAGCCGUUCAGUACCAAGUCUCAGGGGAAACUUUGAGAUGGCCUUGCAAAGGGUAUGGUAAUAAGCUGACGGACAUGGUCCUAACCACGCAGCCAAGUCCUAAGUCAACAGAUCUUCUGUUGAUAUGGAUGCAGUUCACAGACUAAAUGUCGGUCGGGGAAGAUGUAUUCUUCUCAUAAGAUAUAGUCGGACCUCUCCUUAAUGGGAGCUAGCGGAUGAAGUGAUGCAACACUGGAGCCGCUGGGAACUAAUUUGUAUGCGAAAGUAUAUUGAUUAGUUUUGGAGUACUCGUGGUCG
Procedure, shortened: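 The eight P1ex-region nucleotides of an intron in the knt kanamycin-resistance gene on pET-22b(+) were all randomised and the library put into E. coli BL21(DE3). Six replicate transformations were grown overnight at 37°C or 30°C on LB agar with or without 25 μg/mL kanamycin, together with 100 μg/mL carbenicillin, 50 μM IPTG and 0.2% rhamnose. Colonies were pooled and amplicon-sequenced on an Illumina HiSeq 2500. Fitness from DiMSum is the error-weighted combination of wild-type-normalised replicate fold changes, kanamycin over none.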

## CCAGAGCAAUAUUACGGCAC
30 °C
  self-splicing fitness (ln): -3.21 ± 0.32
37 °C
  self-splicing fitness (ln): -2.73 ± 0.27

## CCAGAGCAAUAUUACGGUAG
30 °C
  self-splicing fitness (ln): -2.14 ± 0.11
37 °C
  self-splicing fitness (ln): -2.34 ± 0.2

## CCAGAGCAAUAUUACGGUAU
30 °C
  self-splicing fitness (ln): -3.47 ± 0.2
37 °C
  self-splicing fitness (ln): -2.75 ± 0.26

## CCAGAGCAAUAUUACGGUCC
30 °C
  self-splicing fitness (ln): -3.93 ± 0.33
37 °C
  self-splicing fitness (ln): -1.51 ± 0.34

## CCAGAGCAAUAUUACGUAGU
30 °C
  self-splicing fitness (ln): -4.61 ± 0.22
37 °C
  self-splicing fitness (ln): -2.87 ± 0.21

## CCAGAGCAAUAUUACGUCAA
30 °C
  self-splicing fitness (ln): -4.08 ± 0.39
37 °C
  self-splicing fitness (ln): -2.3 ± 0.35

## CCAGAGCAAUAUUACGUCCU
30 °C
  self-splicing fitness (ln): -4.05 ± 0.22
37 °C
  self-splicing fitness (ln): -2.48 ± 0.25

## CCAGAGCAAUAUUACGUCGU
30 °C
  self-splicing fitness (ln): -3.93 ± 0.24
37 °C
  self-splicing fitness (ln): -2.19 ± 0.21

## CCAGAGCAAUAUUACGUGGC
30 °C
  self-splicing fitness (ln): -1.95 ± 0.18
37 °C
  self-splicing fitness (ln): -3.77 ± 0.39

## CCAGAGCAAUAUUACGUUAA
30 °C
  self-splicing fitness (ln): -4.07 ± 0.37
37 °C
  self-splicing fitness (ln): -2.91 ± 0.29

## CCAUAGCAAUAUUACGAAGU
30 °C
  self-splicing fitness (ln): -3.61 ± 0.21
37 °C
  self-splicing fitness (ln): -2.64 ± 0.22

## CCAUAGCAAUAUUACGAAUC
30 °C
  self-splicing fitness (ln): -3.22 ± 0.14
37 °C
  self-splicing fitness (ln): -1.38 ± 0.17

## CCAUAGCAAUAUUACGACCA
30 °C
  self-splicing fitness (ln): -2.52 ± 0.46

## CCAUAGCAAUAUUACGACCU
30 °C
  self-splicing fitness (ln): -2.92 ± 0.33
37 °C
  self-splicing fitness (ln): -1.28 ± 0.41

## CCAUAGCAAUAUUACGACGA
30 °C
  self-splicing fitness (ln): -3.14 ± 0.21
37 °C
  self-splicing fitness (ln): -1.42 ± 0.14

## CCAUAGCAAUAUUACGACGC
30 °C
  self-splicing fitness (ln): -2.27 ± 0.26
37 °C
  self-splicing fitness (ln): -2.51 ± 0.39

## CCAUAGCAAUAUUACGAGAC
30 °C
  self-splicing fitness (ln): -3.58 ± 0.3
37 °C
  self-splicing fitness (ln): -0.492 ± 0.17

## CCAUAGCAAUAUUACGAGAG
30 °C
  self-splicing fitness (ln): -3.57 ± 0.16
37 °C
  self-splicing fitness (ln): -2.56 ± 0.14

## CCAUAGCAAUAUUACGAGCG
30 °C
  self-splicing fitness (ln): -0.63 ± 0.095
37 °C
  self-splicing fitness (ln): -2.73e-06 ± 0.12

## CCAUAGCAAUAUUACGAUCG
30 °C
  self-splicing fitness (ln): -0.244 ± 0.053
37 °C
  self-splicing fitness (ln): 0.361 ± 0.081

## CCAUAGCAAUAUUACGCAAU
30 °C
  self-splicing fitness (ln): -3.67 ± 0.15
37 °C
  self-splicing fitness (ln): -2.64 ± 0.15

## CCAUAGCAAUAUUACGCAGU
30 °C
  self-splicing fitness (ln): -2.94 ± 0.14
37 °C
  self-splicing fitness (ln): -3.37 ± 0.42

## CCAUAGCAAUAUUACGCCCG
30 °C
  self-splicing fitness (ln): -0.369 ± 0.16
37 °C
  self-splicing fitness (ln): 0.418 ± 0.21

## CCAUAGCAAUAUUACGCGAC
30 °C
  self-splicing fitness (ln): -3.56 ± 0.13
37 °C
  self-splicing fitness (ln): -2.9 ± 0.18

## CCAUAGCAAUAUUACGCUCU
30 °C
  self-splicing fitness (ln): -4.23 ± 0.3
37 °C
  self-splicing fitness (ln): -2.85 ± 0.24

## CCAUAGCAAUAUUACGGAAG
30 °C
  self-splicing fitness (ln): -3.19 ± 0.16
37 °C
  self-splicing fitness (ln): -1.67 ± 0.14

## CCAUAGCAAUAUUACGGACA
30 °C
  self-splicing fitness (ln): -3.36 ± 0.23
37 °C
  self-splicing fitness (ln): -1.14 ± 0.16

## CCAUAGCAAUAUUACGGAGU
30 °C
  self-splicing fitness (ln): -4 ± 0.29
37 °C
  self-splicing fitness (ln): -2.42 ± 0.17

## CCAUAGCAAUAUUACGGGGA
30 °C
  self-splicing fitness (ln): -2.97 ± 0.18
37 °C
  self-splicing fitness (ln): -2.68 ± 0.22

## CCAUAGCAAUAUUACGGGUC
30 °C
  self-splicing fitness (ln): -3.41 ± 0.35
37 °C
  self-splicing fitness (ln): -2.23 ± 0.23

## CCAUAGCAAUAUUACGGUAC
30 °C
  self-splicing fitness (ln): -3.2 ± 0.19
37 °C
  self-splicing fitness (ln): -3.05 ± 0.27

## CCAUAGCAAUAUUACGGUGU
30 °C
  self-splicing fitness (ln): -4.24 ± 0.17
37 °C
  self-splicing fitness (ln): -2.58 ± 0.15

## CCAUAGCAAUAUUACGGUUU
30 °C
  self-splicing fitness (ln): -4.54 ± 0.25
37 °C
  self-splicing fitness (ln): -2.79 ± 0.21

## CCAUAGCAAUAUUACGUAUA
30 °C
  self-splicing fitness (ln): -3.89 ± 0.3
37 °C
  self-splicing fitness (ln): -1.46 ± 0.17

## CCAUAGCAAUAUUACGUCAA
30 °C
  self-splicing fitness (ln): -4.82 ± 0.41
37 °C
  self-splicing fitness (ln): -0.857 ± 0.17

## CCAUAGCAAUAUUACGUCGC
30 °C
  self-splicing fitness (ln): -3.46 ± 0.22
37 °C
  self-splicing fitness (ln): -3.74 ± 0.31

## CCAUAGCAAUAUUACGUGAC
30 °C
  self-splicing fitness (ln): -2.57 ± 0.13
37 °C
  self-splicing fitness (ln): -2.79 ± 0.3

## CCAUAGCAAUAUUACGUGCC
37 °C
  self-splicing fitness (ln): -2.41 ± 0.41

## CCAUAGCAAUAUUACGUUAC
30 °C
  self-splicing fitness (ln): -2.14 ± 0.17
37 °C
  self-splicing fitness (ln): -3.54 ± 0.47

## CCAUAGCAAUAUUACGUUGC
30 °C
  self-splicing fitness (ln): -4.15 ± 0.22
37 °C
  self-splicing fitness (ln): -2.52 ± 0.23

## CCCAAGCAAUAUUACGAGAA
30 °C
  self-splicing fitness (ln): -3.57 ± 0.33
37 °C
  self-splicing fitness (ln): -2.87 ± 0.28

## CCCAAGCAAUAUUACGAGUA
30 °C
  self-splicing fitness (ln): -4.12 ± 0.18
37 °C
  self-splicing fitness (ln): -2.5 ± 0.14

## CCCAAGCAAUAUUACGAUCU
30 °C
  self-splicing fitness (ln): -2.73 ± 0.14
37 °C
  self-splicing fitness (ln): -3.53 ± 0.27

## CCCAAGCAAUAUUACGCAGG
30 °C
  self-splicing fitness (ln): -2.94 ± 0.2
37 °C
  self-splicing fitness (ln): -2.7 ± 0.48

## CCCAAGCAAUAUUACGCCGC
30 °C
  self-splicing fitness (ln): -2.08 ± 0.37
37 °C
  self-splicing fitness (ln): -1.07 ± 0.4

## CCCAAGCAAUAUUACGCGUA
30 °C
  self-splicing fitness (ln): -3.43 ± 0.2
37 °C
  self-splicing fitness (ln): -1.29 ± 0.17

## CCCAAGCAAUAUUACGGUCU
30 °C
  self-splicing fitness (ln): -4.2 ± 0.2
37 °C
  self-splicing fitness (ln): -2.64 ± 0.14

## CCCAAGCAAUAUUACGUAAA
30 °C
  self-splicing fitness (ln): -4.05 ± 0.33
37 °C
  self-splicing fitness (ln): -3.46 ± 0.39
